In the DeepSol protein solubility set:

experiment: soluble on expression in E. coli; label from the status in PepcDB or PDB records

Sequence	soluble on expression in E. coli
MWGRYEKLRIFYDPTRAIYDSGADYLTREKHRLVVIANSAWGLLLNLSCYYDEVLEKRKIPFGKQEIDDDMDKVSALKRKFKDISEIKVGDGWEYPFNYEQGMKELDEVLLKYIPFFEEER	not soluble
APPAAGQQQPPREPPAAPGAWRQQIQWENNGQVFSLLSLGSQYQPQRRRDPGAAVPGAANASAQQPRTPILLIRDNRTAAARTRTAGSSGVTAGRPRPTARHWFQAGYSTSRAREAGASRAENQTAPGEVPALSNLRPPSRVDGMVGDDPYNPYKYSDDNPYYNYYDTYERPRPGGRYRPGYGTGYFQYGLPDLVADPYYIQASTYVQKMSMYNLRCAAEENCLASTAYRADVRDYDHRVLLRFPQRVKNQGTSDFLPSRPRYSWEWHSCHQHYHSMDEFSHYDLLDANTQRRVAEGHKASFCLEDTSCDYGYHRRFACTAHTQGLSPGCYDTYGADIDCQWIDITDVKPGNYILKVSVNPSYLVPESDYTNNVVRCDIRYTGHHAYASGCTISPY	soluble
GSSMVTGGMASKWDQKGMDIAYEEALLGYKEGGVPIGGCLINNKDGSVLGRGHNMRFQKGSATLHGEISTLENCGRLEGKVYKDTTLYTTLSPCDMCTGAIIMYGIPRCVIGENVNFKSKGEKYLQTRGHEVVVVDDERCKKLMKQFIDERPQDWFEDIGE	soluble
GMSSKAEKDIKWGIAPIGWRNDDIPSIGKDNNLQQLLSDIVVAGFQGTEVGGFFPGPEKLNYELKLRNLEIAGQWFSSYIIRDGIEKASEAFEKHCQYLKAINAPVAVVSEQTYTIQRSDTANIFKDKPYFTDKEWDEVCKGLNHYGEIAAKYGLKVAYHHHMGTGIQTKEETDRLMANTDPKLVGLLYDTGHIAVSDGDYMALLNAHIDRVVHVHFKDVRRSKEEECRAKGLTFQGSFLNGMFTVPGDGDLDFKPVYDKLIANNYKGWIVVEAEQDPSKANPLEMAQIAHRYIKQHLIEN	soluble
MSRDPTLILDESNLVIGKDGRVHYTFTTEDDNPKVRLASKCLGTAHFNQLMIERGDQATSYVAPVVVEGTGNPTGLFKDLKEISLELTDTANSQLWSKIKLTNRGMLQEYYDGKIKTEIVNSARGVATRISEDTDKKLALINDTIDGIRREYRDADRKLSASYQAGIEGLKATMANDKIGLQAEIKASAQGLSQKYDDELRKLSAKITTTSSGTTEAYESKLAGLRAEFTRSNQGTRTELESQISGLRAVQQSTASQISQEIRDREGAVSRVQQSLESYQRRMQDAEENYSSLTHTVRGLQSDVGSPTGKIQSRLTQLAGQIEQRVTRDGVMSIISGAGDSIKLAIQKAGGINAKMSGNEIISAINLNSYGVTIAGKHIALDGNTTVNGTFTTKIAEAIKIRADQIIAGTIDAARIRVINLNASSIVGLDANFIKAKIGYAITDLLEGKVIKARNGAMLIDLNTAKMDFNSDATINFNSKNNALVRKDGTHTAFVHFSNATPKGYTGSALYASIGITSSGDGVNSASSGRFAGLRSFRYATGYNHTAAVDQTEIYGDNVLVVDDFNITRGFKFRPDKMQKMLDMNDLYAAVVALGRCWGHLANVGWNTAHSNFTSAVNRELNNYITKI	not soluble
MGSDKIHHHHHHMKFKTVGNPNGPKILLIHPMFATSECFVNLVEYLKEDYFVITPTLDGHDINENSIFLSVEDEGNKVLAYLKDNSIKELDFMLGTSLGAIIAFEIYKRNEIRINKVYLDGGPFFKFGALLQKVAAKKFCNICSEVRQNPQKAINKIERLFKGLGNEMCEVACHITEESIKNLAHACYSFTLPNLKPVEQKSVVFLYGTKEPARFCIFRLRKYKYSRIIKKNGFSHCGYLLSYPKEYAEMLKENTQ	not soluble
